This is an account of results in paper PMC5708776, “Crystal structure of a tripartite complex between C3dg, C-terminal domains of factor H and OspE of Borrelia burgdorferi” (PLoS ONE, 2017).

This experiment has as its target T1, C3dg (residues 955 to 1303 of complement C3), C1010A (UniProt P01024 955-1303, C1010A).
T1 construct: complement C3, C3dg fragment, residues 955-1303; C1010A prevents thioester formation; a second change (printed A1153E) was made to reverse a mutation of the original gene, so that the natural residue stands at 1153; The His6 tag was moved from the N-terminus to the C-terminus (TEV-His6) and removed with TEV protease; residues of the TEV site probably remain at the C-terminus; also called C3dg …
The experiment in a line: crystal structure; three purified proteins mixed at a 1:1:1 molar ratio before crystallisation at 20 °C (PEG 3350, Hepes pH 7.5 or Tris pH 8.5); 3.18 Å; three heterotrimers in the asymmetric unit. Particulars: both partners purified.

T1 sequence (P01024 955-1303 C1010A): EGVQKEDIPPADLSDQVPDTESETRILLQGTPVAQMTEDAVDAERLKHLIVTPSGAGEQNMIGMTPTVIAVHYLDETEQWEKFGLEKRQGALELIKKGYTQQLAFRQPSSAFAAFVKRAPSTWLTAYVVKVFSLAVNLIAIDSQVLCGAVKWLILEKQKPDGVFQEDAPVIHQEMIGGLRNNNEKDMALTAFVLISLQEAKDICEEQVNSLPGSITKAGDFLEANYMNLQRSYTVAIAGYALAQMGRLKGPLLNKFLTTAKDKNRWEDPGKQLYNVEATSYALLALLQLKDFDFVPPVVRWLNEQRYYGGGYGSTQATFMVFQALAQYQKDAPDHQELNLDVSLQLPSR

B1: C-terminal domains 19-20 of human factor H (FH19-20), wild type (domain or fragment)
chain: KDSTGKCGPPPPIDNGDITSFPLSVYAPASSVEYQCQNLYQLEGNKRITCRNGQWSEPPKCLHPCVISREIMENYNIALRWTAKQKLYSRTGESVEFVCKRGYRLSSRSHTLRTTCWDGKLEYPTCAKR
notes: human complement factor H, domains (SCRs) 19-20; also called C-terminus of human factor H
As for B1, the binding result was “binds”.
